Results: patent US7285703B2, “Plant like starches and the method of making them in hosts” (BASF Plant Science GmbH, priority 1998, dated 2007)

Experiments:
[1] = substrate: Nc1ncnc2c1ncn2[C@@H]1O[C@H](COP(=O)(O)OP(=O)(O)O[C@H]2O[C@H](CO)[C@@H](O)[C@H](O)[C@H]2O)[C@@H](O)[C@H]1O; test: purified protein, by the assay type; conditions: other: −citrate, 5 mg/ml amylopectin as primer, 37° C.
Description: (SEQ ID NO:64). pExs8 encodes a truncated SSI, SSI-2, with amino acids # 8-52 deleted from the N-terminus of SSI-1 and which has the N-terminal sequence CVAELSR/DLG (SEQ ID NO:65). pExs1d encodes the most truncated form of SSI, SSI-3, with the first 93 amino acids deleted from SSI-1 and which has the N-terminal sequence [sequence]
5 mL of supernatant were used to assay STS and SBE activities as previously described (Preiss) with minor modification. The reaction mixture for STS contained 100 mM Bicine buffer, 10 mg/mL glycogen, 0.5 mg/mL BSA, 0.5 M sodium citrate, 25 mM potassium acetate, 10 mM GSH, 3 mM [^14C]-ADPGlc (500 dpm/nmol) and enzyme in a final volume of 0.1 mL. The reaction was carried out at 25° C. for 15 min and terminated by boiling for 2 min. The unincorporated [^14C]-ADPGlc was separated with Dowex anion exchange column (200-400 mesh, Sigma Chemical Co.). One unit of activity is defined as 1 nmol Glc incorporated into the a-glucan per min at 25° C.
For the recombinant SS purification, the cell pellet was resuspended in sonication buffer (50 mM Tris-acetate, pH 7.5, 10 mM EDTA, and 5 mMDTT; 7 ml buffer per gram of cell mass), and cells were lysed using a Fisher 550 Sonic Dismembrator with 5×1 min. bursts with 30 sec. intervals. The homogenate was centrifuged at 9600 g for 30 minutes. SSI in the supernatant was then precipitated by slowly adding neutralized saturated ammonium sulfate to 40% saturation. After stirring on ice for an additional 50 minutes, proteins were collected by centrifugation at 12500 g for 45 minutes. The protein pellet was then redissolved in buffer A (50 mM Tris, pH 5.5, 1 mM EDTA, and 5 mM DTT) containing 0.1 M KCl and dialyzed against the same buffer, with one change of buffer. After dialysis, the sample was centrifuged at 13000 g for 20 minutes to remove insoluble materials. The resulting supernatant was loaded onto amylase affinity column pre-equilibrated with dialysis buffer, and the flow through was collected. […]

[2] = substrate: Nc1ncnc2c1ncn2[C@@H]1O[C@H](COP(=O)(O)OP(=O)(O)O[C@H]2O[C@H](CO)[C@@H](O)[C@H](O)[C@H]2O)[C@@H](O)[C@H]1O; test: ADPGlc kinetics of starch synthase SSI-1; type: biochemical, maize; conditions: other: −citrate, 5 mg/ml amylopectin as primer, 37° C.
Source text: (§1) FIG. 58. SSI-1, SSI-2, and SSI-3 construct design. Three forms of SSI were constructed in the pET expression (see Methods). pExs10a encodes SSI-1, the full length maize SSI (583 amino acids) which has the N-terminal sequence CVAELSREGP (SEQ ID NO:64). pExs8 encodes a truncated SSI, SSI-2, with amino acids # 8-52 deleted from the N-terminus of SSI-1 and which has the N-terminal sequence CVAELSR/DLG (SEQ ID NO:65). pExs1d encodes the most truncated form of SSI, SSI-3, with the first 93 amino acids deleted from SSI-1 and which has the N-terminal sequence SIVFVTGE (SEQ ID NO:66). A depiction of the waxygene, encoding GBSS, which has the N-terminal sequence ASAGMNW (SEQ ID NO:67), is also included for comparison. The amino acid motif KS/TGGL (SEQ ID NO:9), the putative binding site for ADGPGlc, in indicated by the triangles. The KS/TGGL (SEQ ID NO:9) motif is located 18 amino acids from the N-terminus in GBSS, while the motif is 106 amino acids from the N-terminus in maize SSI. Drawing not to scale.
(§2) 5 mL of supernatant were used to assay STS and SBE activities as previously described (Preiss) with minor modification. […] The unincorporated [^14C]-ADPGlc was separated with Dowex anion exchange column (200-400 mesh, Sigma Chemical Co.). […] SBE activity was determined by phosphorylase stimulation assay. One unit of activity is defined as 1 mmol Glc incorporated into the a-glucan per min at. […]

[3] = substrate: Nc1ncnc2c1ncn2[C@@H]1O[C@H](COP(=O)(O)OP(=O)(O)O[C@H]2O[C@H](CO)[C@@H](O)[C@H](O)[C@H]2O)[C@@H](O)[C@H]1O; test: ADPGlc kinetics of starch synthase SSI-3; type: biochemical, maize; conditions: other: −citrate, 5 mg/ml amylopectin as primer, 37° C.
Source text: as §1, §2

[4] = substrate: Nc1ncnc2c1ncn2[C@@H]1O[C@H](COP(=O)(O)OP(=O)(O)O[C@H]2O[C@H](CO)[C@@H](O)[C@H](O)[C@H]2O)[C@@H](O)[C@H]1O; test: ADPGlc kinetics of starch synthase SSIIb-1; type: biochemical, maize; conditions: 37° C.
[5] = substrate: Nc1ncnc2c1ncn2[C@@H]1O[C@H](COP(=O)(O)OP(=O)(O)O[C@H]2O[C@H](CO)[C@@H](O)[C@H](O)[C@H]2O)[C@@H](O)[C@H]1O; test: ADPGlc kinetics of starch synthase SSIIb-2; type: biochemical, maize; conditions: 37° C.
Source text: FIG. 60. SSIIb-1 and SSIIb-2 construct diagram. Two forms of SSIIb were constructed in the pET expression system (see Methods). pExs9 encodes SSIIb-1 which has the N-terminal sequence GSVGAALRS (SEQ ID NO:70), the putative full-length maize SSIIb which has the N-terminal sequence AAAPAGEE (SEQ ID NO:2). […] A depiction of the waxy gene, encoding GBSS which has the N-terminal sequence ASAGMNVV (SEQ ID NO:67), is also included for comparison. The amino acid motif KTGGL (SEQ ID NO:10), the putative binding site for ADPGlc, is indicated by the triangles. The KTGGL (SEQ ID NO:10) motif is located 18 amino acids from the N-terminus in GBSS, while the motif is 158 amino acids from the N-terminus in maize SSIIb.
5 mL of supernatant were used to assay STS and SBE activities as previously described (Preiss) with minor modification. […] […] The unincorporated [^14C]-ADPGlc was separated with Dowex anion exchange column (200-400 mesh, Sigma Chemical Co.). […] SBE activity was determined by phosphorylase stimulation assay. One unit of activity is defined as 1 mmol Glc incorporated into the a-glucan per min at. 30° C.
For the recombinant SS purification, the cell pellet was resuspended in sonication buffer (50 mM Tris-acetate, pH 7.5, 10 mM EDTA, and 5 mMDTT; 7 ml buffer per gram of cell mass), and cells were lysed using a Fisher 550 Sonic Dismembrator with 5×1 min. bursts with 30 sec. intervals. The homogenate was centrifuged at 9600 g for 30 minutes. SSI in the supernatant was then precipitated by slowly adding neutralized saturated ammonium sulfate to 40% saturation. After stirring on ice for an additional 50 minutes, proteins were collected by centrifugation at 12500 g for 45 minutes. The protein pellet was then redissolved in buffer A (50 mM Tris, pH 5.5, 1 mM EDTA, and 5 mM DTT) containing 0.1 M KCl and dialyzed against the same buffer, with one change of buffer. After dialysis, the sample was centrifuged at 13000 g for 20 minutes to remove insoluble materials. The resulting supernatant was loaded onto […] pre-equilibrated with dialysis buffer, and the flow through was collected. The column was washed with 10 column volumes of buffer a containing 0.1 M KCl, and then with buffer A containing 0.5 M KCl and 0.5 M maltose, collecting fractions during both washes. The active fractions were pooled and dialyzed overnight against buffer A, with one change of buffer. The next day, the amylase column sample was filtered and applied to a mono Q 5/5 FPLC column (Pharmacia). After washing with buffer A, a 20 ml 0-0,4 M KCl gradient was employed. […]

B1: maize starch synthase SSI-2 (STSI-2), N-terminally truncated SSI, amino acids 8-52 of SSI-1 deleted, N-terminus CVAELSR/DLG (SEQ ID NO:65) (Zea mays; DEL47-91) (protein)
chain: CVAELSRDLGLEPEGIAEGSIDNTVVVASEQDSEIVVGKEQARAKVTQSIVFVTGEASPYAKSGGLGDVCGSLPVALAARGHRVMVVMPRYLNGTSDKNYANAFYTEKHIRIPCFGGEHEVTFFHEYRDSVDWVFVDHPSYHRPGNLYGDKFGAFGDNQFRYTLLCYAACEAPLILELGGYIYGQNCMFVVNDWHASLVPVLLAAKYRPYGVYKDSRSILVIHNLAHQGVEPASTYPDLGLPPEWYGALEWVFPEWARRHALDKGEAVNFLKGAVVTADRIVTVSKGYSWEVTTAEGGQGLNELLSSRKSVLNGIVNGIDINDWNPATDKCIPCHYSVDDLSGKAKCKGALQKELGLPIRPDVPLIGFIGRLDYQKGIDLIQLIIPDLMREDVQFVMLGSGDPELEDWMRSTESIFKDKFRGWVGFSVPVSHRITAGCDILLMPSRFEPCGLNQLYAMQYGTVPVVHATGGLRDTVENFNPFGENGEQGTGWAFAPLTTENMFVDIANCNIYIQGTQVLLGRANEARHVKRLHVGPCR
Question: Which Km [1] does the source give for B1 here?
Answer: 250 ± 40 µM

B2: maize starch synthase SSI-1 (STSI-1), full length SSI (583 amino acids), N-terminus CVAELSREGP (SEQ ID NO:64) (Zea mays) (protein)
chain: CVAELSREGPAPRPLPPALLAPPLVPGFLAPPAEPTGEPASTPPPVPDAGLGDLGLEPEGIAEGSIDNTVVVASEQDSEIVVGKEQARAKVTQSIVFVTGEASPYAKSGGLGDVCGSLPVALAARGHRVMVVMPRYLNGTSDKNYANAFYTEKHIRIPCFGGEHEVTFFHEYRDSVDWVFVDHPSYHRPGNLYGDKFGAFGDNQFRYTLLCYAACEAPLILELGGYIYGQNCMFVVNDWHASLVPVLLAAKYRPYGVYKDSRSILVIHNLAHQGVEPASTYPDLGLPPEWYGALEWVFPEWARRHALDKGEAVNFLKGAVVTADRIVTVSKGYSWEVTTAEGGQGLNELLSSRKSVLNGIVNGIDINDWNPATDKCIPCHYSVDDLSGKAKCKGALQKELGLPIRPDVPLIGFIGRLDYQKGIDLIQLIIPDLMREDVQFVMLGSGDPELEDWMRSTESIFKDKFRGWVGFSVPVSHRITAGCDILLMPSRFEPCGLNQLYAMQYGTVPVVHATGGLRDTVENFNPFGENGEQGTGWAFAPLTTENMFVDIANCNIYIQGTQVLLGRANEARHVKRLHVGPCR
Question: B2 was tested. Which Km [2] did it give?
Answer: 240 ± 20 µM

B3: maize starch synthase SSI-3 (STSI-3), N-terminally truncated SSI, first 93 amino acids of SSI-1 deleted, N-terminus SIVFVTGE (SEQ ID NO:66) (Zea mays) (protein)
chain: SIVFVTGEASPYAKSGGLGDVCGSLPVALAARGHRVMVVMPRYLNGTSDKNYANAFYTEKHIRIPCFGGEHEVTFFHEYRDSVDWVFVDHPSYHRPGNLYGDKFGAFGDNQFRYTLLCYAACEAPLILELGGYIYGQNCMFVVNDWHASLVPVLLAAKYRPYGVYKDSRSILVIHNLAHQGVEPASTYPDLGLPPEWYGALEWVFPEWARRHALDKGEAVNFLKGAVVTADRIVTVSKGYSWEVTTAEGGQGLNELLSSRKSVLNGIVNGIDINDWNPATDKCIPCHYSVDDLSGKAKCKGALQKELGLPIRPDVPLIGFIGRLDYQKGIDLIQLIIPDLMREDVQFVMLGSGDPELEDWMRSTESIFKDKFRGWVGFSVPVSHRITAGCDILLMPSRFEPCGLNQLYAMQYGTVPVVHATGGLRDTVENFNPFGENGEQGTGWAFAPLTTENMFVDIANCNIYIQGTQVLLGRANEARHVKRLHVGPCR
Question: B3 was tested. Which Km [3] did it give?
Answer: 620 ± 40 µM

B4: maize starch synthase SSIIb-1, putative full-length SSIIb (637 amino acids), N-terminus … (SEQ ID NO:70) (Zea mays) (protein)
chain: AAAPAGGESEEAAKSSSSSQAGAVQGSTAKAVDSASPPNPLTSAPKQSQSAAMQNGTSGGSSASTAAPVSGPKADHPSAPVTKREIDASAVKPEPAGDDARPVESIGIAEPVDAKADAAPATDAAASAPYDREDNEPGPLAGPNVMNVVVVASECAPFCKTGGLGDVVGALPKALARRGHRVMVVIPRYGEYAEARDLGVRRRYKVAGQDSEVTYFHSYIDGVDFVFVEAPPFRHRHNNIYGGERLDILKRMILFCKAAVEVPWYAPCGGTVYGDGNLVFIANDWHTALLPVYLKAYYRDNGLMQYARSVLVIHNIAHQGRGPVDDFVNFDLPEHYIDHFKLYDNIGGDHSNVFAAGLKTADRVVTVSNGYMWELKTSEGGWGLHDIINQNDWKLQGIVNGIDMSEWNPAVDVHLHSDDYTNYTFETLDTGKRQCKAALQRQLGLQVRDDVPLIGFIGRLDHQKGVDIIADAIHWIAGQDVQLVMLGTGRADLEDMLRRFESEHSDKVRAWVGFSVPLAHRITAGADILLMPSRFEPCGLNQLYAMAYGTVPVVHAVGGLRDTVAPFDPFNDTGLGWTFDRAEANRMIDALSHCLTTYRNYKESWRACRARGMAEDLSWDHAAVLYEDVLVKAKYQW
notes: N-terminus printed as both … and AAAPAGEE
Question: What does the source list for B4?
Answer: Km ([4]; other: with amylopectin): 400 ± 20 µM; Vmax ([4]; other: with amylopectin): 72.8 ± 2.8 μmol min^−1 mg^−1 protein; Km ([4]; other: with glycogen): 710 ± 10 µM; Vmax ([4]; other: with glycogen): 76.8 ± 3.2 μmol min^−1 mg^−1 protein

B5: maize starch synthase SSIIb-2, N-terminally truncated SSIIb, first 144 amino acids deleted (492 amino acids), N-terminus MNVVVVASE (SEQ ID NO:71) (Zea mays) (protein)
chain: MNVVVVASECAPFCKTGGLGDVVGALPKALARRGHRVMVVIPRYGEYAEARDLGVRRRYKVAGQDSEVTYFHSYIDGVDFVFVEAPPFRHRHNNIYGGERLDILKRMILFCKAAVEVPWYAPCGGTVYGDGNLVFIANDWHTALLPVYLKAYYRDNGLMQYARSVLVIHNIAHQGRGPVDDFVNFDLPEHYIDHFKLYDNIGGDHSNVFAAGLKTADRVVTVSNGYMWELKTSEGGWGLHDIINQNDWKLQGIVNGIDMSEWNPAVDVHLHSDDYTNYTFETLDTGKRQCKAALQRQLGLQVRDDVPLIGFIGRLDHQKGVDIIADAIHWIAGQDVQLVMLGTGRADLEDMLRRFESEHSDKVRAWVGFSVPLAHRITAGADILLMPSRFEPCGLNQLYAMAYGTVPVVHAVGGLRDTVAPFDPFNDTGLGWTFDRAEANRMIDALSHCLTTYRNYKESWRACRARGMAEDLSWDHAAVLYEDVLVKAKYQW
Question: With B5 as the protein, how does the Km ([5]; other: with amylopectin) read?
Answer: 320 ± 30 µM

Question: And the Vmax ([5]; other: with amylopectin)?
Answer: 90.9 ± 4.2 μmol min^−1 mg^−1 protein

Question: What about the Km ([5]; other: with glycogen) of the same protein?
Answer: 320 ± 40 µM

Question: And the Vmax ([5]; other: with glycogen)?
Answer: 130 ± 6 μmol min^−1 mg^−1 protein
